Paper PMC9129000, “RADA-dependent branch migration has a predominant role in plant mitochondria and its defect leads to mtDNA instability and cell cycle arrest”

Biological target: T1, RADA K201A (Arabidopsis thaliana, UniProt F4K8X8 49-627, K201A)
T1 sequence: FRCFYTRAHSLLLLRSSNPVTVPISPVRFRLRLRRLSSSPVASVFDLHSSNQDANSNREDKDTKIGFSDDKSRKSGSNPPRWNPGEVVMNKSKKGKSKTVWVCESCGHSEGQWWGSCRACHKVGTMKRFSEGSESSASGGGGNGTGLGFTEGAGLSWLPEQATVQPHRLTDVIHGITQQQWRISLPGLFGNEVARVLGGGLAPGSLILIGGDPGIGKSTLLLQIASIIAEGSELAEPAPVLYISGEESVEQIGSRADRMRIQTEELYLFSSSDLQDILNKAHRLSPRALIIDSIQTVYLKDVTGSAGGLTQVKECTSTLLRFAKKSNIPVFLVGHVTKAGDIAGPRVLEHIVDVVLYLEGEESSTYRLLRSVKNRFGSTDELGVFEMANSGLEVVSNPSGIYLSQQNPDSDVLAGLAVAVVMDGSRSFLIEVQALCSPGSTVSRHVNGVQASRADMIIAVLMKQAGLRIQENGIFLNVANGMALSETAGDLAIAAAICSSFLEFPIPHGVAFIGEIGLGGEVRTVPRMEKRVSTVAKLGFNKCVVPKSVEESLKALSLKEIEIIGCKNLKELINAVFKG
Test: EMSA; affinity comparable to WT; 20 mM Tris-HCl pH 7.5, 50 mM KCl, 5 mM MgCl2, 0.5 mM EDTA, 10% glycerol, 1 mM DTT, protease inhibitors; 20 C, 20 min; 8 or 4.5% PAGE in TBE at 4 C
Conditions: protein: recombinant; tags: N-terminal His (pET28a); chain copies: 6; label: 5'-32P; single strand

B1: EMSA ssDNA (ssDNA)
DNA: GACGCTGCCGAATTCTACCAGTGCCTTGCTAGGACATCTTTGCCCACCTGCAGGTTCACCC
binding result: binds
